These results are taken from publication PMC4264199, “Peptide Array on Cellulose Support—A Screening Tool to Identify Peptides with Dipeptidyl-Peptidase IV Inhibitory Activity within the Sequence of α-Lactalbumin” (International Journal of Molecular Sciences, 2014).

Ends that are not written are not given here.

The test concerns the target T1, dipeptidyl-peptidase IV (DPP-IV) (Homo sapiens, UniProt P27487).
T1 construct: purchased Creative BioMart (Shirley, NY, USA); host or cells: HEK293 human cells
Put plainly: DPP-IV inhibition assay on SPOT-synthesized peptides (cleaved from cellulose membrane). Format: biochemical. The conditions noted are these: peptides cleaved from cellulose membrane, concentration not known (semi-quantitative); averages of four determinations from two experiments. An excerpt: Recombinant human dipeptidyl-peptidase IV (DPP-IV, EC 3.4.14.5, expressed in HEK293 human cells, >95% purity, activity >5500 pmoles Gly–Pro–7-amido-4-methylcoumarin/min/µg) was purchased from Creative BioMart (Shirley, NY, USA) while polyclonal goat DPP-IV antibody and polyclonal donkey anti-goat secondary antibody conjugated to horseradish peroxidase were obtained from R&D Systems (Minneapolis, MN, USA). Pierce™ ECL western blotting substrate and protein-free (TBS) blocking buffer were from Thermo Scientific (Rockford, IL, USA). Gly–Pro–p-nitroanilide (H-Gly–Pro–p-NA∙HCl) was purchased from Bachem Americas (Torrance, CA, USA). Synthesized peptides (≥95% purity) were prepared and purified by GL Biochem (Shanghai) Ltd. (Shanghai, China).
Peptide arrays of deca-peptides spanning the entire α-lactalbumin sequence with a frame shift of one amino acid between successive sequences were prepared by Kinexus Bioinformatics Corporation (Vancouver, BC, Canada). The peptides were synthesized from the C-terminal amino acid using the SPOT technology consisting of the stepwise coupling of the Fmoc-protected amino acids and cleavage of the side chain protection groups. The α-lactalbumin-derived peptides were synthesized on trioxatridecanediamine (TOTD) and β-alanine-modified Whatman 540 cellulose membranes for the binding and inhibition assays, respectively. For the inhibition assay, the peptides were synthesized in large dots (5–7 mm in diameter) and the quality of the synthesis was verified by HPLC analysis of quality controls spots included on the membranes.
In order to determine the effect of the SPOT-synthesized peptides on the activity of the DPP-IV enzyme, the peptides were first cleaved from the cellulose support by incubating the membranes with gaseous ammonia overnight. Peptide spots (5 mm in diameter) were then punched out using a single-hole punch and transferred into microcentrifuge tubes containing 150 µL of acetonitrile (50% in 100 mM Tris–HCl buffer pH 8.0). The peptide solution (50 µL) was pipetted into a 96-well microplate with 35 µL of the chromogenic substrate Gly–Pro–p-NA (0.29 mM in 100 mM Tris–HCl buffer pH 8.0). The mixture was pre-incubated for 10 min at 37 °C, whereupon 15 µL of DPP-IV (25 mU/mL) was added and the enzymatic reaction was carried out for 30 min at 37 °C. The reaction was then terminated by addition of 100 µL of 1 M sodium acetate buffer pH 4.0 and the absorbance of the released p-nitroaniline was measured at 405 nm using a Tecan Infinite® 200 Pro microplate reader (ESBE Scientific, Markham, ON, Canada). Positive and negative controls (DPP-IV activity with no inhibitor and no DPP-IV activity, respectively) were prepared using punched peptide-free cellulose spots from the same membrane used for peptide synthesis, and adding Tris-HCl buffer in place of the sample and in place of the sample and enzyme solution, respectively.
One unit of DPP-IV was defined as the concentration of enzyme that releases 1 µmol per min of p-nitroaniline from Gly–Pro–p-NA (100 µM) at 37 °C and pH 8.0.

T1 sequence (P27487 whole entry): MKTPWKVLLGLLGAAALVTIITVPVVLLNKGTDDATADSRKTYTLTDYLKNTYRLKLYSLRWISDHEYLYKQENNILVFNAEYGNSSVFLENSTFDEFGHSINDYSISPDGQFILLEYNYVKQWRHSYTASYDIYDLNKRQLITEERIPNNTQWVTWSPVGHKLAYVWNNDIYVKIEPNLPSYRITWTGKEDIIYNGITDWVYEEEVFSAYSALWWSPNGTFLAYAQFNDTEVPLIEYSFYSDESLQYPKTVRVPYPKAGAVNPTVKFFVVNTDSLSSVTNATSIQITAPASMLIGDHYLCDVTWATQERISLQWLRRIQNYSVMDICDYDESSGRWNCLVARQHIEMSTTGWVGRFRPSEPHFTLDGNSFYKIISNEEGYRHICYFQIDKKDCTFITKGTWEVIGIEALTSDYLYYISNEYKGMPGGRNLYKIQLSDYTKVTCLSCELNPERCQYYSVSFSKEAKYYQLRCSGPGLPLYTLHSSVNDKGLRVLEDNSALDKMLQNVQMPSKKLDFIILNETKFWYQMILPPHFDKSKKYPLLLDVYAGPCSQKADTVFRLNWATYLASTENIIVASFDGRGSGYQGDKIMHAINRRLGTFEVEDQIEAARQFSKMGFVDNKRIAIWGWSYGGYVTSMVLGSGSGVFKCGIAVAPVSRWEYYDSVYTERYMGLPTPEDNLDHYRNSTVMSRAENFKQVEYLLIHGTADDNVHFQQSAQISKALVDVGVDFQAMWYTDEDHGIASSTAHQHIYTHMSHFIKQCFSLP

In the case of “H6: α-lactalbumin-derived deca-peptide, residues 83–92 (Table S1) (DDLTDDIMCV; UniProt P00711 102-111, looked up, fragment)”, the “Percent inhibition of DPP-IV activity, SPOT-synthesized deca-peptides” value (“Percent inhibition of DPP-IV activity” below) worked out at 19%. Consider “G2: α-lactalbumin-derived deca-peptide, residues 68–77 (Table S1) (HSSNICNISC; UniProt P00711 87-96, looked up, fragment)”, for which the “Percent inhibition of DPP-IV activity” value is given as 9%. To “J1: α-lactalbumin-derived deca-peptide, residues 100–109 (Table S1) (GIDYWLAHKA; UniProt P00709 119-128, looked up, fragment)” belongs 25%; to “I3: α-lactalbumin-derived deca-peptide, residues 91–100 (Table S1) (CVKKILDKVG; UniProt P00711 110-119, looked up, fragment)”, 26%; to “B7: α-lactalbumin-derived deca-peptide, residues 18–27 (Table S1) (YGGVSLPEWV; UniProt P00711 37-46, looked up, fragment)”, 15%. To CSEKLDQWLC [K1] belongs 22%; to “G8: α-lactalbumin-derived deca-peptide, residues 74–83 (Table S1) (NISCDKFLDD; UniProt P00711 93-102, looked up, fragment)”, 19%; to “I6: α-lactalbumin-derived deca-peptide, residues 94–103 (Table S1) (KILDKVGINY; UniProt P00711 113-122, looked up, fragment)”, 20%.

In the case of “B9: α-lactalbumin-derived deca-peptide, residues 20–29 (Table S1) (GVSLPEWVCT; UniProt P00711 39-48, looked up, fragment)”, the “Percent inhibition of DPP-IV activity” value was found to be 15%. Next, ELKDLKGYGG [A11]: 8%; AHKALCSEKL [J7]: 21%. Next, “H8: α-lactalbumin-derived deca-peptide, residues 85–94 (Table S1) (LTDDIMCVKK; UniProt P00711 104-113, looked up, fragment)”: 20%; “HAEGTFTSDY [K10, HAEGTFTSDY, reference compound]”: 19%. In the case of “G3: α-lactalbumin-derived deca-peptide, residues 69–78 (Table S1) (SSNICNISCD; UniProt P00711 88-97, looked up, fragment)”, the “Percent inhibition of DPP-IV activity” value was 16%. TEYGLFQINN [E4]: the “Percent inhibition of DPP-IV activity” value turned out to be 9%. To “H9: α-lactalbumin-derived deca-peptide, residues 86–95 (Table S1) (TDDIMCAKKI; UniProt P00709 105-114, looked up, fragment)” belongs 20%. In the case of “H3: α-lactalbumin-derived deca-peptide, residues 80–89 (Table S1) (FLDDDLTDDI; UniProt P00711 99-108, looked up, fragment)”, the “Percent inhibition of DPP-IV activity” value is on record as 18%.

Regarding SEKLDQWLCE [K2], the “Percent inhibition of DPP-IV activity” value was 19%. Next, “I1: α-lactalbumin-derived deca-peptide, residues 89–98 (Table S1) (IMCVKKILDK; UniProt P00711 108-117, looked up, fragment)”: 17%; “D1: α-lactalbumin-derived deca-peptide, residues 34–43 (Table S1) (SGYDTQAIVE; UniProt P00709 53-62, looked up, fragment)”: 11%. To SCDKFLDDDL [G10] belongs 21%; to “I9: α-lactalbumin-derived deca-peptide, residues 97–106 (Table S1) (DKVGINYWLA; UniProt P00711 116-125, looked up, fragment)”, 22%; to “I2: α-lactalbumin-derived deca-peptide, residues 90–99 (Table S1) (MCAKKILDIK; UniProt P00709 109-118, looked up, fragment)”, 19%. “D6: α-lactalbumin-derived deca-peptide, residues 39–48 (Table S1) (QAIVQNNDST; UniProt P00711 58-67, looked up, fragment)”: the “Percent inhibition of DPP-IV activity” value was determined as 14%. For the substance “H5: α-lactalbumin-derived deca-peptide, residues 82–91 (Table S1) (DDDITDDIMC; UniProt P00709 101-110, looked up, fragment)”, the “Percent inhibition of DPP-IV activity” value is listed as 14%.

As for “H11: α-lactalbumin-derived deca-peptide, residues 88–97 (Table S1) (DIMCVKKILD; UniProt P00711 107-116, looked up, fragment)”, the “Percent inhibition of DPP-IV activity” value came out at 15%. To STEYGLFQIN [E3] belongs 13%; to INNKIWCKDD [E11, INNKIWCKDD], 21%.

Take “B4: α-lactalbumin-derived deca-peptide, residues 15–24 (Table S1) (LKGYGGVSLP; UniProt P00711 34-43, looked up, fragment)”: the “Percent inhibition of DPP-IV activity” value is listed as 13%.

As to IVQNNDSTEY [D8], the “Percent inhibition of DPP-IV activity” value amounted to 15%. Regarding “A9: α-lactalbumin-derived deca-peptide, residues 9–18 (Table S1) (FRELKDLKGY; UniProt P00711 28-37, looked up, fragment)”, the “Percent inhibition of DPP-IV activity” value was found to be 17%. Turning to HTSGYDTQAI [C10], the “Percent inhibition of DPP-IV activity” value was determined as 11%. For the substance “I7: α-lactalbumin-derived deca-peptide, residues 95–104 (Table S1) (ILDKVGINYW; UniProt P00711 114-123, looked up, fragment)”, the “Percent inhibition of DPP-IV activity” value worked out at 19%. As for “C3: α-lactalbumin-derived deca-peptide, residues 25–34 (Table S1) (ELICTMFHTS; UniProt P00709 44-53, looked up, fragment)”, the “Percent inhibition of DPP-IV activity” value was determined as 18%. Next, YGLFQINNKI [E6]: 11%; SLPEWVCTTF [B11]: 9%; “D5: α-lactalbumin-derived deca-peptide, residues 38–47 (Table S1) (TQAIVQNNDS; UniProt P00711 57-66, looked up, fragment)”: 14%. On to “J4: α-lactalbumin-derived deca-peptide, residues 103–112 (Table S1) (YWLAHKALCS; UniProt P00711 122-131, looked up, fragment)”, for which the “Percent inhibition of DPP-IV activity” value is on record as 20%. Next, “C2: α-lactalbumin-derived deca-peptide, residues 24–33 (Table S1) (PEWVCTTFHT; UniProt P00711 43-52, looked up, fragment)”: 14%. To KIWCKDDQNP [F3] belongs 19%; to KALCSEKLDQ [J9], 24%; to AIVQNNDSTE [D7], 11%.
